Experimental data as given in patent publication US12194057B2, “NXTAR-derived oligonucleotides and uses thereof” (Washington University, priority 2020, dated 2025).

Columns and labels:
[1] = test system: VCaP and 22Rv1 cells; experiment: Proliferation assay, viable cells by trypan blue exclusion; assay type: cell-based, human
Procedure: NXTAR-N5 oligonucleotide was synthesized by IDT, and the oligonucleotide sequence is provided in TABLE 1 and FIG. 7C (* represents phosphorothioate bond modifications to avoid degradation by exonucleases). Equal numbers of VCaP and 22Rv1 cells were transfected with NXTAR-N5 or globin-derived oligonucleotide using X-tremeGENE360 (Sigma-Aldrich, Cat #08724121001), and the number of live cells was counted 96 h post-transfection using trypan blue exclusion method (Sigma, Cat #T8154). RNA was prepared from these cells, and qRT-PCR [SYBR PremixEx Taq II (Tli RNase H Plus)ROX, Clontech Takara, Cat #RR82LR] for AR and AR-V7 was performed as described earlier (see e.g., Mahajan et al. (2017) Cancer Cell).
The 22Rv1, VCaP, or LNCaP cells were retrovirally infected with control or NXTAR vectors and selected in puromycin medium containing 5% charcoal-stripped serum. Equal numbers of selected cells were seeded in 6-well plates followed by treatment with either (R)-9b, enzalutamide (Selleck Chemicals, Cat #S1250), or abiraterone (Selleck Chemicals, Cat #52246), and the number of viable cells was counted by trypan blue exclusion assay.

[2] = target: T1, EZH2 (Homo sapiens, UniProt Q15910); experiment: Pull-down from VCaP cell lysates with biotinylated oligos, immunoblotting for EZH2; assay type: binding; settings: VCaP cells with retroviral expression of NXTAR
T1 construct: endogenous in cells; host or cells: VCaP cells (some retrovirally infected to over-express NXTAR lncRNA)
T1 sequence (Q15910 whole entry): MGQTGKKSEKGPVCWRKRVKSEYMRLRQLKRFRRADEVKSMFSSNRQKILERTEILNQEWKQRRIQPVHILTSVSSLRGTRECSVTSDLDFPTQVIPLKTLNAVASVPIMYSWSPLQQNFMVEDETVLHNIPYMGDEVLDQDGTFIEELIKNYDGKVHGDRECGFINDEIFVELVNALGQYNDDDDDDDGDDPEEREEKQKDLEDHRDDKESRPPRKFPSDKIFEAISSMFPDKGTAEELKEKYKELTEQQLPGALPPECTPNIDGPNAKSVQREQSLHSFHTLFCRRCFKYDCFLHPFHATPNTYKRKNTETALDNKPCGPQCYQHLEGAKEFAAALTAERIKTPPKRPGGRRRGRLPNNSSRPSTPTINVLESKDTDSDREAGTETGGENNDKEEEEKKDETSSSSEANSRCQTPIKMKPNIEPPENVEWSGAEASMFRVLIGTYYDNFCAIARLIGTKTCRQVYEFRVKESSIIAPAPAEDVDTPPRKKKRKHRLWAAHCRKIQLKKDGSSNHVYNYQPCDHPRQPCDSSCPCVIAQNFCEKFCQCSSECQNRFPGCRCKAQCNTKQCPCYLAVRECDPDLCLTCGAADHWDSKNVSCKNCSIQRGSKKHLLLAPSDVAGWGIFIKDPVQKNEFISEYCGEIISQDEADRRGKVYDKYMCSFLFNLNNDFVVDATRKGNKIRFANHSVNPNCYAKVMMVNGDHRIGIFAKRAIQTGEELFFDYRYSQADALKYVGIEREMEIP
T1 sequence (O75530 whole entry partner): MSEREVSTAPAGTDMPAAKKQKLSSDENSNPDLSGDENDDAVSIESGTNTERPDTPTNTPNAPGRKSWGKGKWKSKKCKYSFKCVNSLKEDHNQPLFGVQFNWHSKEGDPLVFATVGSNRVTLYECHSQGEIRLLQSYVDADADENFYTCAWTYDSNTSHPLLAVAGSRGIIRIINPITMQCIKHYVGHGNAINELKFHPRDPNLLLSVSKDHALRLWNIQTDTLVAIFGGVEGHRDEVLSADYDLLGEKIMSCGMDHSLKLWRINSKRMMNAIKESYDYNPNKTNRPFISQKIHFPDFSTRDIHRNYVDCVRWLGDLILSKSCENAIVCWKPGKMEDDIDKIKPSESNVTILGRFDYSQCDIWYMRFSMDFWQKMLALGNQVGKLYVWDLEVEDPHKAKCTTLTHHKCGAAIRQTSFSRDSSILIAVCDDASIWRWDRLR
T1 sequence (Q15022 whole entry partner): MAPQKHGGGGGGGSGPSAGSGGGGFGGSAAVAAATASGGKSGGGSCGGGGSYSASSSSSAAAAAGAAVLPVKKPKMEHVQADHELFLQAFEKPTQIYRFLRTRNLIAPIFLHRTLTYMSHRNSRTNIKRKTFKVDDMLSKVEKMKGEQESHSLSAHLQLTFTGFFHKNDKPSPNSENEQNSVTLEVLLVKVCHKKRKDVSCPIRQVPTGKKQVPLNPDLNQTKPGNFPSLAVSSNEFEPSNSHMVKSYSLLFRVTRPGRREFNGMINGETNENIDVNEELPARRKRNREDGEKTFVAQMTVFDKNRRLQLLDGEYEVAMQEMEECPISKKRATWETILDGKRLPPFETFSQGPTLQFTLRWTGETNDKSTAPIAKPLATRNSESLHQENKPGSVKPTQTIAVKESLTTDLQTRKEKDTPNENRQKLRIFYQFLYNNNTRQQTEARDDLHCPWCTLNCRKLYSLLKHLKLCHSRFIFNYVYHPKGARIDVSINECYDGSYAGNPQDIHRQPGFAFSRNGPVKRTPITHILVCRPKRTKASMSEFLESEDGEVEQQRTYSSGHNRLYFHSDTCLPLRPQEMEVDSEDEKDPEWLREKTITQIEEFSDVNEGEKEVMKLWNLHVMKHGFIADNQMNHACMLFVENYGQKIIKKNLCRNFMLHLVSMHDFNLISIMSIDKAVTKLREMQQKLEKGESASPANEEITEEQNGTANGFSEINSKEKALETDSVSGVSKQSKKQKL
T1 sequence (Q09028 whole entry partner): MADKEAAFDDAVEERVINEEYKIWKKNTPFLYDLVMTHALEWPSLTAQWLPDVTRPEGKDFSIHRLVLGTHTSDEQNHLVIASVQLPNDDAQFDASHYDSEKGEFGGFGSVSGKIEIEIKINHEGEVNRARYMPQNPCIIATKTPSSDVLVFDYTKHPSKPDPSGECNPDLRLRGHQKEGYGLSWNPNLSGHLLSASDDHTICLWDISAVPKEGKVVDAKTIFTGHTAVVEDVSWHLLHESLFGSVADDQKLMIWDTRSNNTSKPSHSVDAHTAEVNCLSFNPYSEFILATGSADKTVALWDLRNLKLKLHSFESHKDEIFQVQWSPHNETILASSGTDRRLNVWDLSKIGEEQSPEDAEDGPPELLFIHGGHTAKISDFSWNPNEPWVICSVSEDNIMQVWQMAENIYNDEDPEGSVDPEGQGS
Procedure: The biotinylated oligonucleotides were incubated with lysates (2 h), and the lysates were incubated with streptavidin magnetic beads overnight. Beads attached to RNAs were divided equally and processed for either RNA isolation or western blotting. For RNA isolation, beads were washed three times and then separated using proteinase K treatment. RNA was then isolated and purified, and DNA was digested in the process. The real-time quantitative RT-PCR was performed on isolated RNA to check the efficiency of pull-down of NXTAR RNA. The remaining beads were heated at 80° C. for 5 min in loading buffer, followed by western blotting. The blots were probed with EZH2 (CST, 5246S; RRID:AB_10694683) antibody and Actin (SCBT, sc-47778; RRID:AB_2714189) was used as the loading control.
Biotin-labeled NXTAR-N5 (complementary to the AR promoter) and globin oligos were synthesized (IDT) (see e.g., TABLE 1). ChIRP was performed using lysate from formaldehyde-fixed VCaP cells and oligos that were immobilized to streptavidin beads, as described earlier (see e.g., Chu and Chang (2016) Methods Mol Bio). The amount of the chromatin DNA was determined by real-time PCR. For detection of NXTAR-N5/EZH2 binding, biotin-labeled NXTAR-N5 oligo and control globin oligo were incubated with VCaP cell lysates and were subjected to chromatin pull-down, followed by immunoblotting with EZH2 antibodies.

[3] = target: T2, purified EZH2 (Homo sapiens, UniProt Q15910); experiment: EZH2 pull-down assay with purified 6xHis-tagged EZH2; assay type: binding; settings: immobilized on streptavidin beads
T2 construct: made in house
T2 sequence (Q15910 whole entry): as the sequence (Q15910 whole entry) above
Procedure: 1 mg of lysate prepared from HEK293 cells transfected with 6λHis-tagged-EZH2 plasmid was incubated with Ni-NTA agarose beads (Qiagene) overnight at 4° C. Beads were washed three times using wash buffer (20 mM Tris/HCl, 200 mM NaCl, 5 mM imidazole; pH 7.5) and purified EZH2 was eluted using elution buffer (20 mM Tris/HCl, 200 mM NaCl, 200 mM imidazole; pH 7.5).
LncRNA-Protein binding study was performed as described earlier (see e.g., Zhao, Wang, and Hu (2021) Methods Mol Bio). Briefly, 10 pmol Biotinylated NXTAR-N5 oligo or Biotinylated Globin oligos were diluted in 40 ul RNA structure buffer, heated at 90° C. for 2 min, immediately transferred onto ice for 2 min and then kept at RT for further 20 mins. 10 uM of purified EZH2 protein was added to these biotinylated oligos with 500 ul of NETN buffer and the tubes were placed at 4° C. for 2 hrs. Post washing with cold NETN buffer, streptavidin magnetic beads (60 ul) were added into prepared oligo-protein mix and incubated at 4° C. overnight. Beads were washed 3 times with NETN buffer, followed by western blot analysis. […]

B1: NXTAR: long non-coding RNA, 1476-nt transcript (SEQ ID NO: 58), expressed from retroviral or plasmid constructs (nucleic acid, listed as Homo sapiens)
chain: GGAAAAGGAAGGCTGCACAGAAGAACTGGCATTTGTGTTCTGCCTACAAAGCTGAAAAGGATTTCACCCAAATCAGGGAAGATCAGCCTTATGAGGTGGATATTATTGCCACAATAATTTTCCAGATGAAAAATGGAGGCCCAGAGATGTTAAGGAATTTGCCCAAGATCATGAAAAGACACTCTCCCCTATTGAGATGTCATGCAAGGATCAGTGCTGTGTGAAAATCCACATGAAGCAGGAAATGCAGGTGGTGGTGTCCAATCTGATTTCAAGATCTGAGAAGCTGTGCACTGCCTGAAAGGTATCTATTTAAGGTGTCACCAGACTCCTGCTCCACTCCTGCCCAAGGCCCAGCCCATCCAAGAGCAAAAGGCAAGTGGTGTTACAACCTTGGGATTTCCTGTATCTGCCCTCTTGCGGATAGCAGGACAGAGTCACAGCTGCATTAAATTCGCTTAAGACTTATTGAGACACTTCAACACTTCAACAACGACCTGTGAGATTAAGATTATTATTTTAAATTTACAGAAGGGGAAACTAAGAATTATAGACATGAAGTGACTCACCTATGACCACCTGGTGATAGAACCAGGACTAGAGCTCAGGTATGAAGATTTCTGGGGGAGTCCCTGAAAAAAAGGCTCCATATGGAATTACAATGTGGAAAAGGCCAAGGCCTCACCAACCCTTTTCTCTTCAACACCTGGATCCCTAAGTCCTTATTCGTAACCTCCTCTTTGGACAAGGTTTTGGTAGACAAAGCCAGAGCCTCTTGCACTGAGAAAGACAAATTCTCCTCTTGCAGTGAACCACAGGTAAATGCTCCAATAGAGAGTCCAAGCCAAACCTCCGGGTGTTATTCATGACCCAGGCAAGTCTGCTTTCTCATTCCCCCTATCTCTAGACCGTTTTCCATTTGGGCTTCCTTTTCTTCTTTTATCCTCAAAGAAACATGTTTCCTTCTAGTAGGTTTGGCTGCCACCACTAGGGTCCTGGCTACAACTGGCCCTCAGGTAACTCTCTCACCTCTGAGTTGGATAGTATCCTCTCTCGTCCCCATACACAAGTGTTTCTCTTCCCAGACACCTTCCTTACACAATTTCCCATTTCTTTCTCATCTCACCCTTGCTTTAATCAACATAGTTCTTTCCCCTGAGATTACTCTTCAGCCTTTCTTGTTGAAGCACTGCCCAGTGGTTCTCTTGGGATTTCCATTTCTCTCCCCTCAGCTCTCTTGGTACCAAATTCTGTAAGCTTCTCTGGTTTTTGGTTTCTCTTCCTTCTTTTCCTTCCAGGCAACATTTACTCAATCTAGGCTTGGATGATCAGGTACTTCTGCCAGCCTGCCCACTAGGGAACTCTGGGCTAGGAATATGTCTCAATGGCACCATTATATTTGGAAGGACGCTTCTGTATTTACACTGAACACACTAAAATACTAAACTTGAAGCCAAAATCCCCTCTCTGGCTCCA
Question: With B1 as the molecule, how does the sensitivity to abiraterone ([1]; 22Rv1 cells expressing NXTAR, 5 days) read?
Answer: further sensitized them

Question: What about the “proliferation upon enzalutamide treatment” value ([1]; VCaP and 22Rv1 cells expressing NXTAR) of the same molecule?
Answer: significantly compromised proliferation

Question: And the proliferation ([1]; VCaP and 22Rv1 cells, NXTAR expression vs pBABE vector)?
Answer: severe loss of proliferation

Question: What about the “EZH2 binding in RNA pull-down” value [2] of the same molecule?
Answer: EZH2 could bind to NXTAR RNA

Question: And the “binding to purified EZH2” value [3]?
Answer: considerable binding
